T1: mouse SEMA4D, full length, on CHO-K1 cells (CHO-K1 mSEMA4D) (mouse, UniProt O09126 24-861)
T1 construct: whole, on cells; also called murine SEMA4D recombinant cells
T1 sequence (looked up): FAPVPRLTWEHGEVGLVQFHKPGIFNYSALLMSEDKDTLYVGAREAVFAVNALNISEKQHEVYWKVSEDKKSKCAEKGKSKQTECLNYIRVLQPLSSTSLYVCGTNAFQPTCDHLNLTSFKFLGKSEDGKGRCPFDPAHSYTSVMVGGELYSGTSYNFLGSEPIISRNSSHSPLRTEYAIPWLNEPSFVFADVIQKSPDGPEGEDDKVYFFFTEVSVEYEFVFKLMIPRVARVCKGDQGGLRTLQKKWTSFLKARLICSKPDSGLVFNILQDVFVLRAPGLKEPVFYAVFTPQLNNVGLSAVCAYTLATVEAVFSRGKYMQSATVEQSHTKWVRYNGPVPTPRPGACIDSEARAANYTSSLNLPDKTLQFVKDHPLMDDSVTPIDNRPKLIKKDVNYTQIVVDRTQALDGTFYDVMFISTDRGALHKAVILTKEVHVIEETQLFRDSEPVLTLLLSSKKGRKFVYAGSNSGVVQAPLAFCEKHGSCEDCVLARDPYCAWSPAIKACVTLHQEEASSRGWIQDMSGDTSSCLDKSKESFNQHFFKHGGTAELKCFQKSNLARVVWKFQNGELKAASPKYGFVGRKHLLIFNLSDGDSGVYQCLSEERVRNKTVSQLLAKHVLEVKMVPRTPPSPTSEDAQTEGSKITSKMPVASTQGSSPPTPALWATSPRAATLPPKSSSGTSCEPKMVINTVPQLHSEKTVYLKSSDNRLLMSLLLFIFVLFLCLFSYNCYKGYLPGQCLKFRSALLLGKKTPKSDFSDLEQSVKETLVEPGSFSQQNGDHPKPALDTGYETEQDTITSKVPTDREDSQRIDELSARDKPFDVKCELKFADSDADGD

T2: hSEMA4D ECD-His (His-tagged human SEMA4D protein extracellular domain, Met22-Arg734) (human, UniProt Q92854 22-734)
T2 construct: Expressed in CHO-S cells, purified on Ni column; also called protein immunogen; immunogen A; not shown: His tag of the pCP vector
T2 sequence: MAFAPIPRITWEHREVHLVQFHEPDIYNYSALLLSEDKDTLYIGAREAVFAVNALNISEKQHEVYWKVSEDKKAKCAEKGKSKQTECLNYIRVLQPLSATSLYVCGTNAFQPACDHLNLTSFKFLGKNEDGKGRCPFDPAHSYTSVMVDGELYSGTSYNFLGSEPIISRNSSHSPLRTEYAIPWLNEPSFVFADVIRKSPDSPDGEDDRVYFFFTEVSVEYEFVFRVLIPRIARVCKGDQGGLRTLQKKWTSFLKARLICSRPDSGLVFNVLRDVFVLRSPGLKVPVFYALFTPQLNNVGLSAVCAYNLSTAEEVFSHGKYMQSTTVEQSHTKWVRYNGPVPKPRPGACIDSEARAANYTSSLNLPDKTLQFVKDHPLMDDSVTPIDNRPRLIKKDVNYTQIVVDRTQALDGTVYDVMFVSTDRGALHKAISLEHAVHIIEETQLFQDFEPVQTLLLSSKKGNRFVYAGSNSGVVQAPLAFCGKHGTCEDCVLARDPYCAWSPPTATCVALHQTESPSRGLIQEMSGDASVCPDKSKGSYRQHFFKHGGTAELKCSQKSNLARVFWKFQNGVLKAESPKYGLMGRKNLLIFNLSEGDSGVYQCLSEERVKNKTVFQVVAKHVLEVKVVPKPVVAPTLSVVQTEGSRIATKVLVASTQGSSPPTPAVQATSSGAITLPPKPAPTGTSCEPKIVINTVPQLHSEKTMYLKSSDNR


Tests used:
[1] = biological target: T1, mouse SEMA4D, full length, on CHO-K1 …; experiment: FACS, CHO-K1 mSEMA4D cells; Ab 66.7 nM
Experimental: (§1) After the cells were counted, they were diluted with PBS to 2×10⁶ cells per milliliter. After washing, 100 μL of diluted and purified leading antibodies was added to each well and the plate was incubated for 1 hour on ice. […] Cells were washed 2 times by centrifugation with FACS buffer. The cells were suspended with 200 μL of FACS buffer, FACS (FACS Verse, purchased from BD) was used to detect and analyze the results.

[2] = biological target: T3, monkey SEMA4D, full length, on CHO-K1 cells (CHO-K1 cSEMA4D) (monkey); experiment: FACS, CHO-K1 cSEMA4D cells; Ab 0.107 nM
T3 construct: whole, on cells; also called monkey SEMA4D recombinant cells
Experimental: as §1

[3] = biological target: T2, hSEMA4D ECD-His (His-tagged human …); experiment: ELISA, coated hSEMA4D ECD-His; Ab 6.67 nM
Experimental: First, hSEMA4D ECD-His was diluted with PBS to a final concentration of 1.0 μg/mL, and then was added to a 96-well ELISA plate, 100 μL per well, sealed with plastic film and incubated overnight at 4° C. On the next day, the plate was washed with a plate washing solution, that is, PBS buffer containing 0.05% (v/v) Tween20, for 4 times, and added with blocking solution, that is, PBS buffer containing 0.05% (v/v) Tween20 and 2% (w/w) BSA, blocked at 37° C. for 1 hour. The blocking solution was poured out and the plate was washed 4 times with the plate washing solution. 100 μL of the purified leading antibodies obtained in Examples 1 and 2 was added to each well. After incubation at 37° C. for 1 hour, the plate was washed 4 times with a plate washing solution. 100 μL of horseradish peroxidase (HRP) labeled secondary antibody (purchased from Sigma) was added at a dilution of 1:10000 to each well, and the plate was incubated at 37° C. for 1 hour, and washed 4 times with a plate washing solution. 100 μL TMB substrate was added to each well, and the plate was incubated at room temperature for 5 minutes, and added with 100 μL stop solution (1.0N HCl) to each well. A microplate reader (SpectraMax M5e, purchased from Molecular Device) was used to read the A450 nm value. […] Wherein, the data in the table was the OD450 nm value.

MFI [1]	MFI [2]	OD450 nm [3]	Binder
35.3	793	2.07	42B7G2 (antibody, V domains shown, Mouse monoclonal antibody purified from hybridoma supernatant on protein A) VH: QVQLQQSGAELARPGASVKLSCKASGYTFTDYGISWVKQRTGQGLEWIGEIYLRNDNSYYNEKFKGKATLTADKSSNTAYMELRSLTSEDSAVYFCARWGDHGNNYEDAMDYWGQGTSVTVSS VL: DIVLTQSPASLAMSLGKRATISCRASESVSIIGSNLIHWYQQKPGQPPKLLIYHASNLETGVPARFSGSGSRTDFTLTIDPVEEDDVAIYYCLQSRKVPYTFGGGTKLEIK
30	237	1.19	37C4F7 (antibody, V domains shown, Mouse monoclonal antibody purified from hybridoma supernatant on protein A) VH: EFQLQQSGPEVVKPGASVKISCKASGYSFTDYNMNWMKQSKGKSLEWIGVINPNYGTTTYNQNFKGKATLTVDQSSSTAYMQLNSLTSEDSAVYYCARDMYYVYAYYTMDYWGQGTSVTVSS VL: DVVMTQTPLSLPVSLGDQASISCRSSQSLVHSNGHTYLHWYLQRPGQSPTLLIYKVSNRFSGVPDRFSGSGSGTDFTLKISRVEAEDLGVYFCSQGTHVPWTFGGGTKLEIK
30	210	1.46	38H2E3 (antibody, V domains shown, Mouse monoclonal antibody purified from hybridoma supernatant on protein A) VH: EFQLQQSGPEVVKPGASVKISCKASGYSFTDYNMNWMKQSKGKSLEWIGVISPDYGTTTYNQNFKDKATLTVDQSSSTAYMQLNSLTSEDSAVYYCAKDMYYVYAYYTMDYWGHGTSVTVSS VL: DVVMTQTPLSLPVSLGDQASISCRSSQSLVHSNGHTYLHWYLQRPGQSPTLLIYKVSNRFSGVPDRVSGSGSGTDFTLKISRVEAEDLGVYFCSQGTHVPRTFGGGTKLEIK
31	300	1.54	37F11F9 (antibody, V domains shown, Mouse monoclonal antibody purified from hybridoma supernatant on protein A) VH: EVQLQQSGPVLVKPGASVKMSCKASGYTFTDYYMNWVKQSHGKSLEWIGLINPYSGGSTFNQKFKAKATLTVDKSSSSAYMDLNSLTSEDSAVYYCARVGDGYYGVTHGMDYWGQGTSVTVSS VL: DIVMTPSQKFMSTTVGDRVSITCKASQNVGTAVAWYQQKPGQSPTILIYSASNRYTGVPDRFTGSGSGTDFTLTISNMKSEDLADYFCQQYYIYPFTFAAGTKLELK
31.7	1010	2.32	32C8F10 (antibody, V domains shown, Mouse monoclonal antibody purified from hybridoma supernatant on protein A) VH: EVQLQQSGAELVRPGASVKLSCTASGFNIKDEYIHWVKQRPEQGLEWIGWIDPANGHTEYASRFQAKATITADTSSNTAYLQLSSLTSEDTAVYYCTTGDYDGFAYWGQGTLVTVST VL: QIVLTQSPAIMSASPGEKVTISCSARSSVSYMYWYQQKPGSSPKPWIYRTSNLASGVPARFSGSGSGTSYSLTISSMEAEDAATYYCQHYHTYPYTFGGGTKLEIK
31.4	1210	1.74	31C11G2 (antibody, V domains shown, Mouse monoclonal antibody purified from hybridoma supernatant on protein A) VH: EVQLQQSGAELVRPGASVKLSCTASGFNIKDEYIHWVKQRPEQGLEWIGWIDPANGHTEYASRFQAKATITADTSSNTAYLQLSSLTSEDTAVYYCTTGDYDGFVYWGQGTLVTVST VL: QIVLTQSPAIMSASPGEKVTIFCSARSSVSYMYWYQQKPGSSPKPWIYRTSNLASGVPARFSGSGSGTSYSLTISSMEAEDAATYYCQHYHTYPYTFGGGTKLEIK
32.4	1310	1.59	31G10C5 (antibody, V domains shown, Mouse monoclonal antibody purified from hybridoma supernatant on protein A) VH: EVQLQQSGAELVRPGASVKLSCTASGFNIKDDYIHWVKQRPEQGLEWIGWIDPANGHIEYASNFQAKATITADTSSNTAYLQLSSLTSEDTAVYYCTTGDYDGFTYWGQGTLVTVST VL: QIVLTQSPAIMSASPGEKVTISCSARSSVSYMYWYQQKPGSSPKPWIYRTSNLASGVPARFSGSGSGTSYSLTISSMEAEDAATYYCQHYHTYPYTFGGGTKLEIK
